Test results published in US20220324953A1 (JIANGSU HENGRUI MEDICINE, published 2022).
Substitutions are numbered along the chain they refer to. Values belong to the binder of their own block, whether it stands above or below them.

Key:
[1] = target: T1, Mouse CTGF protein-His tag (mouse, UniProt P29268 26-348); test: ELISA, plate coated with mouse CTGF-his
T1 construct: C-terminal His tag; also called mouse CTGF-his protein; mouse CTGF fusion protein
T1 sequence: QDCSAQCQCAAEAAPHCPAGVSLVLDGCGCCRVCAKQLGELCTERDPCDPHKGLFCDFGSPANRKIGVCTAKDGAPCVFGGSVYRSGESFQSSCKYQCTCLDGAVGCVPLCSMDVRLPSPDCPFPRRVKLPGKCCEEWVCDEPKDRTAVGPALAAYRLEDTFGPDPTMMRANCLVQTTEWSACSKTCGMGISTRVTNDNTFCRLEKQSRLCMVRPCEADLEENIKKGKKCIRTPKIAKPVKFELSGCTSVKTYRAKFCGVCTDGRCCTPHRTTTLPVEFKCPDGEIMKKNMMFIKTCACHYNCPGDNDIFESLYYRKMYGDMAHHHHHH
Description: The binding activity of anti-mouse CTGF antibody to mouse CTGF protein was tested by ELISA assay. A 96-well microtiter plate was directly coated with the mouse CTGF fusion protein. The signal strength upon the addition of the antibody was used to determine the binding activity of the antibody to mouse CTGF. The specific experimental procedures were as follows:
The mouse CTGF-his protein was diluted with PBS, pH 7.4 (Shanghai Yuanpei, Cat No. B320) buffer to a concentration of 0.5 μg/ml, added into the 96-well microtiter plate (Corning, Cat No. CLS3590-100EA) at 50 μl/well, and incubated in an incubator at 37° C. for 2 hours. The liquid was removed, 250 μl/well blocking solution (5% skim milk (BD skim milk, Cat No. 232100) diluted in PBS) was added, and incubated in an incubator at 37° C. for 3 hours or at 4° C. overnight (16-18 hours) for blocking. After the blocking was finished, the blocking solution was removed, the plate was washed for 3 times with PBST buffer (PBS containing 0.1% Tween-20, pH 7.4), 50 μl/well of various concentrations of each of the test antibodies (antibodies purified from hybridoma or humanized antibodies) diluted with sample dilution solution were added, and incubated in an incubator at 37° C. for 1 hours. After the incubation was finished, the plate was washed for 3 times with PBST, 50 μl/well of HRP-labeled goat anti-mouse secondary antibody (Jackson Immuno Research, Cat No. 115-035-003) or goat anti-human secondary antibody (Jackson Immuno Research, Cat No. 109-035-003) diluted with sample dilution solution was added, and incubated at 37° C. for 1 hour. The plate was washed for 5 times with PBST, 50 μl/well of TMB chromogenic substrate (KPL, Cat No. 52-00-03) was added, incubated at room temperature for 5-10min, and 50 μl/well of 1 M H₂SO₄ was added to stop the reaction. The absorbance value was read by a microplate reader (Molecular Devices, VERSA max) at a wavelength of 450 nm, and the data was analyzed with GraphPad Prism 5. The binding of CTGF antibody to mouse CTGF protein was calculated as EC50 value.

[2] = target: T2, human CTGF (antigen of the Biacore assays) (human, UniProt P29279 27-349); test: Biacore, antibody captured on Protein A, CTGF in flow, 1:1 fit
T2 construct: also called antigen human CTGF; human CTGF protein
T2 sequence (looked up): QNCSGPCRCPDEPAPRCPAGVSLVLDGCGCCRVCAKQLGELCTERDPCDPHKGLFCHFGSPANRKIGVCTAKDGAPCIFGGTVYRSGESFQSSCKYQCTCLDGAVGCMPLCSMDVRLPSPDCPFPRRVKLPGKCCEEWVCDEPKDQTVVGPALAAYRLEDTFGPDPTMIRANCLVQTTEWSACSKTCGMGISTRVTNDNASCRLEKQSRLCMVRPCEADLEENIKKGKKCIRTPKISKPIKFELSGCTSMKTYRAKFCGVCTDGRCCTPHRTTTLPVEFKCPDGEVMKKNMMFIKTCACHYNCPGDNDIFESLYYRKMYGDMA
Text: A certain amount of each of the test antibodies was affinity-captured with Protein A biosensor chip (Cat. # 29127556, GE), and then a certain concentration of human or mouse CTGF was allowed to flow through the surface of the chip. The reaction signals were detected in real time with Biacore instrument to generate a binding and dissociation curve. After the dissociation was completed in each cycle, the biosensor chip was washed and regenerated with Glycine-HCl regeneration solution pH 1.5 (Cat. # BR-1003-54, GE). The running buffer for the assay was 1×HBS-EP buffer solution (Cat. # BR-1001-88, GE).

[3] = target: T2, human CTGF (antigen of the Biacore …); test: Biacore, CTGF immobilised, antibody 150 µg/ml then 50 nM TGF-β1 (competitor TGF-β1)
Description: First, the antigen human CTGF was immobilized onto a CMS biosensor chip (Cat. # BR-1005-30, GE) by amino coupling, with an immobilization level of 1500 RU, and then a high concentration of CTGF antibody (150 μg/ml) was allowed to flow through the surface of the chip for 150 s; 50 nM TGF-β1 protein was injected for 120 s, and the reaction signals were detected in real time with the Biacore T200 instrument to generate a binding and dissociation curve. After the dissociation was completed in each of the experimental cycles, the biosensor chip was washed and regenerated with regeneration buffer.
The resulting experimental data were statistically analyzed with GE Biacore T200 Evaluation version 3.0 software.

EC50 [1]: 0.065 nM
Kd [2]: 0.302 nM
koff [2]: 0.0116 s⁻¹
kon [2]: 3.84e+07 M⁻¹ s⁻¹
B1: Hu164-68wl (antibody, human IgG1, lambda, V domains shown)
VH: EVTLKESGPVLVKPTETLTLTCTVSGFSLSTFGVHWIRQPPGKGLEWLGVIWRRGGTDYNAAFMSRLTISKDTSKSQVVFTMTNMDPVDTATYYCARDGGFDYWGQGTTVTVSS
VL: ETVVTQEPSFSVSPGGTVTLTCRSSIGAVTTSNYANWVQQTPGQAFRGLIGGTSNRAPGVPDRFSGSILGNKAALTITGAQADDESDYYCALWYSTHYVFGGGTKLTVLG

EC50 [1]: 0.059 nM
Kd [2]: 0.322 nM
koff [2]: 0.028 s⁻¹
kon [2]: 8.71e+07 M⁻¹ s⁻¹
B2: Hu164-69wl (antibody, human IgG1, lambda, V domains shown)
VH: B1 VH
VL: ESVVTQPPSVSGAPGQRVTISCRSSIGAVTTSNYANWVQQLPGTAFKGLIGGTSNRAPGVPDRFSGSKSGTSASLAITGLQAEDEADYYCALWYSTHYVFGGGTKLTVLG

EC50 [1]: 0.077 nM
Function-blocking percentage (%) [3]: 41.3%
B3: positive control CTGF antibody mAb1 (antibody, V domains shown)
VH: EGQLVQSGGGLVHPGGSLRLSCAGSGFTFSSYGMHWVRQAPGKGLEWVSGIGTGGGTYSTDSVKGRFTISRDNAKNSLYLQMNSLRAEDMAVYYCARGDYYGSGSFFDCWGQGTLVTVSS
VL: DIQMTQSPSSLSASVGDRVTITCRASQGISSWLAWYQQKPEKAPKSLIYAASSLQSGVPSRFSGSGSGTDFTLTISSLQPEDFATYYCQQYNSYPPTFGQGTKLEIKR
notes: Positive control, from CN1829740B; also called pamrevlumab; FG-3019

EC50 [1]: 0.058 nM
Kd [2]: 0.343 nM
koff [2]: 0.0176 s⁻¹
kon [2]: 5.15e+07 M⁻¹ s⁻¹
B4: Hu164-77wl (antibody, human IgG1, lambda, V domains shown)
VH: EVQLQESGPGLVKPSQTLSLTCTVSGFSISTFGVHWIRQHPGKGLEWIGVIWRRGGTDYNAAFMSRVTISKDTSKNQVSLKLSSVTAADTAVYYCARDGGFDYWGQGTTVTVSS
VL: ETVVTQEPSLTVSPGGTVTLTCRSSIGAVTTSNYANWVQQKPGQAFRGLIGGTSNRAPWTPARFSGSLLGGKAALTLSGVQPEDEAEYYCALWYSTHYVFGGGTKLTVLG

EC50 [1]: 0.067 nM
Kd [2]: 0.194 nM
koff [2]: 0.0204 s⁻¹
kon [2]: 1.05e+08 M⁻¹ s⁻¹
B5: Hu164-87wl (antibody, human IgG1, lambda, V domains shown)
VH: B4 VH with I48L, V67L, L80F
VL: B4 VL

EC50 [1]: 0.041 nM
Kd [2]: 0.0691 nM
koff [2]: 0.00294 s⁻¹
kon [2]: 4.26e+07 M⁻¹ s⁻¹
B6: Hu164-57wl (antibody, human IgG1, lambda, V domains shown)
VH: B1 VH with G44A, G49A, F80L
VL: B4 VL

EC50 [1]: 0.336 nM
Kd [2]: 1.01 nM
koff [2]: 0.0142 s⁻¹
kon [2]: 1.4e+07 M⁻¹ s⁻¹
Function-blocking percentage (%) [3]: 52.3%
B7: Hu147-22wk (antibody, human IgG1, kappa, V domains shown)
VH: EVQLVESGGGLVQPGGSLRLSCAASGFTFNTYAMNWVRQAPGKGLEWVARIRTKSNNYATYYADSVKDRFTISRDDSKNSLYLQMNSLKTEDTAVYYCVETGFAYWDQGTLVTVSS
VL: EIVLTQSPATLSLSPGERATLSCSASSSVSYMHWFQQKPGQSPKLLIYSTSNLASGIPARFSGSGSGTDYTLTISSLEPEDFAVYYCQQRSSYPLTFGQGTKLEIKR

EC50 [1]: 0.249 nM
Kd [2]: 0.969 nM
koff [2]: 0.033 s⁻¹
kon [2]: 3.41e+07 M⁻¹ s⁻¹
Function-blocking percentage (%) [3]: 51.6%
B8: Hu147-12wk (antibody, human IgG1, kappa, V domains shown)
VH: B7 VH with N30S, A49G
VL: B7 VL

EC50 [1]: 0.228 nM
Kd [2]: 1.13 nM
koff [2]: 0.0336 s⁻¹
kon [2]: 2.98e+07 M⁻¹ s⁻¹
Function-blocking percentage (%) [3]: 50.8%
B9: Hu147-11wk (antibody, human IgG1, kappa, V domains shown)
VH: B7 VH with N30S, A49G
VL: B7 VL with K44R

EC50 [1]: 0.159 nM
Function-blocking percentage (%) [3]: 52.3%
B10: Hu147-15wk (antibody, human IgG1, kappa, V domains shown)
VH: B7 VH with N30S, A49G
VL: DIQLTQSPSSLSASVGDRVTITCSASSSVSYMHWFQQKPGKSPKLWIYSTSNLASGVPSRFSGSGSGTDYTLTISSLQPEDFATYYCQQRSSYPLTFGQGTKLEIKR

EC50 [1]: 0.258 nM
Kd [2]: 0.713 nM
koff [2]: 0.0104 s⁻¹
kon [2]: 1.45e+07 M⁻¹ s⁻¹
Function-blocking percentage (%) [3]: 57.3%
B11: Hu147-33wk (antibody, human IgG1, kappa, V domains shown)
VH: B7 VH with T28S, K78E, N79S
VL: B7 VL with L46W, I57V

EC50 [1]: 0.247 nM
Kd [2]: 0.974 nM
koff [2]: 0.0162 s⁻¹
kon [2]: 1.66e+07 M⁻¹ s⁻¹
Function-blocking percentage (%) [3]: 51.6%
B12: Hu147-21wk (antibody, human IgG1, kappa, V domains shown)
VH: B7 VH
VL: B7 VL with K44R

EC50 [1]: 0.32 nM
Kd [2]: 0.894 nM
koff [2]: 0.0159 s⁻¹
kon [2]: 1.78e+07 M⁻¹ s⁻¹
Function-blocking percentage (%) [3]: 55%
B13: Hu147-31wk (antibody, human IgG1, kappa, V domains shown)
VH: B7 VH with T28S, K78E, N79S
VL: B7 VL with K44R

EC50 [1]: 0.349 nM
Kd [2]: 0.91 nM
koff [2]: 0.0133 s⁻¹
kon [2]: 1.46e+07 M⁻¹ s⁻¹
Function-blocking percentage (%) [3]: 55.2%
B14: Hu147-32wk (antibody, human IgG1, kappa, V domains shown)
VH: B7 VH with T28S, K78E, N79S
VL: B7 VL

EC50 [1]: 0.263 nM
Function-blocking percentage (%) [3]: 52.8%
B15: Hu147-24wk (antibody, human IgG1, kappa, V domains shown)
VH: B7 VH
VL: B10 VL with L4M, W46L

EC50 [1]: 0.127 nM
Kd [2]: 0.808 nM
koff [2]: 0.024 s⁻¹
kon [2]: 2.97e+07 M⁻¹ s⁻¹
Function-blocking percentage (%) [3]: 53.3%
B16: Hu147-13wk (antibody, human IgG1, kappa, V domains shown)
VH: B7 VH with N30S, A49G
VL: B7 VL with L46W, I57V

EC50 [1]: 0.2 nM
Kd [2]: 0.818 nM
koff [2]: 0.0112 s⁻¹
kon [2]: 1.37e+07 M⁻¹ s⁻¹
Function-blocking percentage (%) [3]: 54.6%
B17: Hu147-23wk (antibody, human IgG1, kappa, V domains shown)
VH: B7 VH
VL: B7 VL with L46W, I57V
